The target of the assay is T1, DJ-1 (mouse (endogenous in mouse frontal cortex)), Q99LX0.
T1 chain: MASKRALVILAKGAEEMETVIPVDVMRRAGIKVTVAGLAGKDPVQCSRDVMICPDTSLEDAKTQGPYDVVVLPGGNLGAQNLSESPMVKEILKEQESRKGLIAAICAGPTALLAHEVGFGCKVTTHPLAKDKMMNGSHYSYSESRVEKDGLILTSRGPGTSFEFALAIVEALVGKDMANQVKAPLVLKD
The assay is described as follows: cross-linking. The settings on record: remark: other sources report otherwise.

B1: DJ-1, Q99LX0 1-189 (natural protein)
chain: T1 chain
In the case of B1, the stoichiometry N was 2.

What is called stoichiometry N is the number of molecules, sites or subunits per partner or assembly.

The record behind these values is PMC10957154.
